Paper PMC10514464 (iScience, 2023)
Where no end group is shown, it is not given here. The star is where a group is joined. FITC = O=C1OC2(c3ccc(O)cc3Oc3cc(O)ccc32)c2ccc(NC(=S)*)cc21

B1: doubly-phosphorylated wild-type rat ERK2 oxidized with H2O2 (sulfenylated on C159) (enzyme)
chain: MAAAAAAGPEMVRGQVFDVGPRYTNLSYIGEGAYGMVCSAYDNLNKVRVAIKKISPFEHQTYCQRTLREIKILLRFRHENIIGINDIIRAPTIEQMKDVYIVQDLMETDLYKLLKTQHLSNDHICYFLYQILRGLKYIHSANVLHRDLKPSNLLLNTTCDLKICDFGLARVADPDHDHTGFLTEYVATRWYRAPEIMLNSKGYTKSIDIWSVGCILAEMLSNRPIFPGKHYLDQLNHILGILGSPSQEDLNCIINLKARNYLLSLPHKNKVPWNRLFPNADSKALDLLDKMLTFNPHKRIEVEQALAHPYLEQYYDPSDEPIAEAPFKFDMELDDLPKEKLKELIFEETARFQPGYRS

Columns and labels:
[1] = target: B1; test: SPR
[2] = target: T1, FITC-labeled pepHePTP; test: fluorescence polarisation
T1 peptide: {FITC}-RLQERRGSNVALMLDV

Row | Binder | Kd [1] [µM] | fold increase in KD,app against untreated ERK2 [2] [fold]
1 | Ac-FQRKTLQRRNLKGLNLNL-NH2 [Lig-D peptide] | 58 | 
2 | B1 |  | ~100
